To fix the notation:
B1: 35 EK-DART (bispecific antibody)
chain 1: QSVLTQPPSVSAAPGQKVTISCSGSSSNIGNNYVSWYQQLPGTAPKLLIYDNNKRPSGIPDRFSGSKSGTSATLGITGLQTGDEADYYCGTWDSSLSAVVFGGGTKLTVLGGGSGGGGEVQLVESGGGLVQPGGSLRLSCAASGFTFNTYAMNWVRQAPGKGLEWVARIRSKYNNYATYYADSVKDRFTISRDDSKNSLYLQMNSLKTEDTAVYYCVRHGNFGNSYVSWFAYWGQGTLVTVSSGGCGGGKVAALKEKVAALKEKVAALKEKVAALKE
chain 2: QAVVTQEPSLTVSPGGTVTLTCRSSTGAVTTSNYANWVQQKPGQAPRGLIGGTNKRAPWTPARFSGSLLGGKAALTITGAQAEDEADYYCALWYSNLWVFGGGTKLTVLGGGGSGGGGEVQLVQSGAEVKKPGASVKVSCKASGYTFTSYGISWVRQAPGQGLEWMGWISAYNGNTNYAQKLQGRVTMTTDTSTSTAYMELRSLRSDDTAVYYCATIDTASAFDIWGQGTMVTVSSGGCGGGEVAALEKEVAALEKEVAALEKEVAALEK
B2: 154 EK-DART (bispecific antibody)
chain 1: B1 chain 1 with A98S, V99Y, G103T, L107V
chain 2: B1 chain 2 with S221T
B3: 180 EK-DART (bispecific antibody)
chain 1: B1 chain 1 with L4V, V99Y, G103T, L107V
chain 2: B1 chain 2 with S221N
B4: 165 EK-DART (bispecific antibody)
chain 1: B1 chain 1 with T81A, V99Y, G103T, L107V
chain 2: B1 chain 2 with S221N
B5: 153 EK-DART (bispecific antibody)
chain 1: B1 chain 1 with A98G
chain 2: B1 chain 2 with S221N, D224G
B6: 177 EK-DART (bispecific antibody)
chain 1: B1 chain 1 with V99Y, G103T, L107V
chain 2: B1 chain 2 with S221N
B7: 178 EK-DART (bispecific antibody)
chain 1: B1 chain 1
chain 2: B1 chain 2 with S221N
B8: 179 EK-DART (bispecific antibody)
chain 1: B1 chain 1 with S26R, N52S, A98S, V99W
chain 2: B1 chain 2 with S221N
B9: 153 VF-DART (bispecific antibody, not shown: small tags and cut ends)
chain 1: QSVLTQPPSVSAAPGQKVTISCSGSSSNIGNNYVSWYQQLPGTAPKLLIYDNNKRPSGIPDRFSGSKSGTSATLGITGLQTGDEADYYCGTWDSSLSGVVFGGGTKLTVLGGGSGGGGEVQLVESGGGLVQPGGSLRLSCAASGFTFSTYAMNWVRQAPGKGLEWVGRIRSKYNNYATYYADSVKGRFTISRDDSKNSLYLQMNSLKTEDTAVYYCVRHGNFGNSYVSWFAYWGQGTLVTVSS
chain 2: QAVVTQEPSLTVSPGGTVTLTCRSSTGAVTTSNYANWVQQKPGQAPRGLIGGTNKRAPWTPARFSGSLLGGKAALTITGAQAEDEADYYCALWYSNLWVFGGGTKLTVLGGGGSGGGGEVQLVQSGAEVKKPGASVKVSCKASGYTFTSYGISWVRQAPGQGLEWMGWISAYNGNTNYAQKLQGRVTMTTDTSTSTAYMELRSLRSDDTAVYYCATIDTANAFGIWGQGTMVTVSS
modifications: One interchain disulfide between the Linker 2 cysteines; these linkers are left out of the letters.
B10: 154 VF-DART (bispecific antibody, not shown: small tags and cut ends)
chain 1: B9 chain 1 with G98S, V99Y, G103T, L107V
chain 2: B9 chain 2 with N221T, G224D
B11: 34 EK-DART (bispecific antibody)
chain 1: B1 chain 1 with L4V, V99W
chain 2: B1 chain 2
B12: 33 EK-DART (bispecific antibody)
chain 1: B1 chain 1 with V99Y, G103T, L107V
chain 2: B1 chain 2 with E119Q, V120M, T216L, D218G, T219S, A220G, S221V
B13: 20 EK-DART (bispecific antibody)
chain 1: AIQMTQSPSSLSASVGDRVTITCRASQSIGKYLNWYQQIPGKAPKLLIYTASTLQTGVPSRFSGSGSGTDFTLTIVSLQPEDFATYYCQQSFNTPRTFGQGTKVEIKGGGSGGGGEVQLVESGGGLVQPGGSLRLSCAASGFTFNTYAMNWVRQAPGKGLEWVARIRSKYNNYATYYADSVKDRFTISRDDSKNSLYLQMNSLKTEDTAVYYCVRHGNFGNSYVSWFAYWGQGTLVTVSSGGCGGGKVAALKEKVAALKEKVAALKEKVAALKE
chain 2: QAVVTQEPSLTVSPGGTVTLTCRSSTGAVTTSNYANWVQQKPGQAPRGLIGGTNKRAPWTPARFSGSLLGGKAALTITGAQAEDEADYYCALWYSNLWVFGGGTKLTVLGGGGSGGGGEVQLVQSGAEVKKPGASVKVSCKASGYTFTGYYMHWVRQAPGQGLEWMGRINPNSGGTNYAQKFQGRVTMTRDTSISTAYMELSRLRSDDTAVYYCAKGSGSGAFDIWGQGTMVTVSSGGCGGGEVAALEKEVAALEKEVAALEKEVAALEK

Substitutions are numbered along the chain they refer to. “And” between values parts separate entries of the source, which are not always exact repeats. Identical values can stand only once.

human soluble CD3 (human), sequence (P07766 23-126, chain 1 of 2): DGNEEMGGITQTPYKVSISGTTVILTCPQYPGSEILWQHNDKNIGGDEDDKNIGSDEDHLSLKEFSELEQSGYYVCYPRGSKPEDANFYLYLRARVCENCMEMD
human soluble CD3 (human), sequence (P04234 22-105, chain 2 of 2, further chain): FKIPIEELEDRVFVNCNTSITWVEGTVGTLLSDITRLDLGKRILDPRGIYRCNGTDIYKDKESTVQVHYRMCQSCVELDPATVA

The first experiment addresses human soluble CD3 (human) (UniProt P07766). In words: SPR. Background: Surface plasmon resonance follows binding to a sensor surface in real time, without labels.
As usually defined, the Kd is the concentration at which binding is half-saturated. The molecule B1 showed a Kd of 17.1 nM.

The target is the same in another experiment. In words: SPR Biacore.
As a reminder, the koff is a measure of how fast the partners let go of each other. A low value points to slow dissociation. Usually kon stands for the second-order rate constant of association. Low readings indicate slow association, high ones fast association. As to B2, the Kd came to 17.1 nM, the koff stood at 0.00768 s⁻¹ and the kon turned out to be 456000 M⁻¹ s⁻¹.

On to B3, for which the Kd came out at 15.9 nM, the koff turned out to be 0.0111 s⁻¹ and the kon stood at 706000 M⁻¹ s⁻¹.

The molecule B4 displayed a Kd of 14.9 nM, a koff of 0.00417 s⁻¹ and a kon of 278000 M⁻¹ s⁻¹.

In the case of B1, the Kd came out at 23.6 nM, the koff worked out at 0.00447 s⁻¹ and the kon was found to be 189000 M⁻¹ s⁻¹.

The molecule B5 came in with a Kd of 15.7 nM, a koff of 0.00631 s⁻¹ and a kon of 403000 M⁻¹ s⁻¹.

With B6, the Kd turned out to be 19.9 nM, the koff worked out at 0.00443 s⁻¹ and the kon stood at 253000 M⁻¹ s⁻¹.

In turn, B7 registered a Kd of 23.1 nM, a koff of 0.00526 s⁻¹ and a kon of 230000 M⁻¹ s⁻¹.

B8 came in with a Kd of 25.8 nM, a koff of 0.00641 s⁻¹ and a kon of 306000 M⁻¹ s⁻¹.

The target is the same in another experiment. The experiment in a line: SPR Biacore pH 7.4.
The term t½ denotes the time in which the quantity being followed falls by half. Low readings indicate fast loss, high ones slow loss. As to B5, the dissociation constant Kd is 22.3 nM and 24 nM; the koff is 0.00618 s⁻¹ and 0.0068 s⁻¹; the kon was 277000 M⁻¹ s⁻¹ and 283000 M⁻¹ s⁻¹; the t½ is 1.76 min and 1.6 min.

With B9, the Kd was 4.65 nM and 4.77 nM; the koff is 0.00525 s⁻¹ and 0.00555 s⁻¹; the kon is 1.13e+06 M⁻¹ s⁻¹ and 1.16e+06 M⁻¹ s⁻¹; the t½ was 2.07 min and 1.96 min.

The target is the same in a further experiment. In words: SPR Biacore affinity.
In turn, B9 had a Kd of 4.71 nM. This lies in the single-digit nanomolar range.

As for B10, the Kd worked out at 3.69 nM.

Another experiment has the same target. In words: SPR Biacore pH 7.4, average.
The molecule B5 had a Kd of 23.1 nM.

On to B9, for which the Kd was 4.71 nM.

The next experiment shares this target. In words: SPR Biacore 3000, antigen immobilised.
The molecule B11 displayed a dissociation constant Kd of 22.8 nM, a koff of 0.00445 s⁻¹ and a kon of 195000 M⁻¹ s⁻¹.

Consider B12, for which the Kd is 17.7 nM, the koff is 0.00403 s⁻¹ and the kon came out at 228000 M⁻¹ s⁻¹.

B1: the Kd worked out at 23.6 nM, the koff was determined as 0.00447 s⁻¹ and the kon amounted to 189000 M⁻¹ s⁻¹.

Take B13: the Kd was determined as 5.19 nM, the koff came out at 0.00609 s⁻¹ and the kon was found to be 979000 M⁻¹ s⁻¹.

These data come from patent publication US20160002357A1.
